Measurements: paper PMC9927937, “Loss of LGR4/GPR48 causes severe neonatal salt wasting due to disrupted WNT signaling altering adrenal zonation” (The Journal of Clinical Investigation, 2023)

What was measured:
[1] = target: HA-tagged LGR4, wild type (human, UniProt Q9BXB1-1 25-951); test: cell-based or functional assay
[2] = target: HA-tagged LGR4 nt-24 variant (-8 AA) (human, UniProt Q9BXB1-1 25-951, p.(His207_Arg214)); test: cell-based or functional assay

B1: GFP-tagged RSPO1 (ligand, UniProt Q2MKA7 21-263, looked up)
chain: SRGIKGKRQRRISAEGSQACAKGCELCSEVNGCLKCSPKLFILLERNDIRQVGVCLPSCPPGYFDARNPDMNKCIKCKIEHCEACFSHNFCTKCKEGLYLHKGRCYPACPEGSSAANGTMECSSPAQCEMSEWSPWGPCSKKQQLCGFRRGSEERTRRVLHAPVGDHAACSDTKETRRCTVRRVPCPEGQKRRKGGQGRRENANRNLARKESKEAGAGSRRRKGQQQQQQQGTVGPLTSAGPA
[1]
  TOP-Flash luciferase reporter of Wnt/β-catenin signaling in HEK293T cells transfected with LGR4, stimulated by RSPO1 (fold over basal): 6.1 fold
[2]
  TOP-Flash luciferase reporter of Wnt/β-catenin signaling in HEK293T cells transfected with LGR4, stimulated by RSPO1 (fold over basal): 3.3 fold
